Measured values: publication PMC7316778 (Nature Communications, 2020)

How the values were obtained:
Experiment in all cases: PamChip microarray peptide phosphorylation
FES^WT = molecular target: T1, FES^WT (Homo sapiens, UniProt P07332); assay type: biochemical; settings: peptide substrate phosphorylated by FES - WT
T1 construct: human FES cDNA encoding residues 448–822 or human FER cDNA encoding residues 448–820 was amplified by PCR; made in house; host or cells: E. coli BL21(DE3), co-expressing YopH phosphatase

ABL1 = ABL1 (Homo sapiens, UniProt P00519); settings: peptide substrate phosphorylated by ABL1
CSK = CSK (Homo sapiens, UniProt P41240); settings: peptide substrate phosphorylated by CSK
FGR = FGR (Homo sapiens, UniProt P09769); settings: peptide substrate phosphorylated by FGR
LYN = LYN (Homo sapiens, UniProt P07948); settings: peptide substrate phosphorylated by LYN
SYK = SYK (Homo sapiens, UniProt P43405); settings: peptide substrate phosphorylated by SYK

T1 sequence (P07332 448-822): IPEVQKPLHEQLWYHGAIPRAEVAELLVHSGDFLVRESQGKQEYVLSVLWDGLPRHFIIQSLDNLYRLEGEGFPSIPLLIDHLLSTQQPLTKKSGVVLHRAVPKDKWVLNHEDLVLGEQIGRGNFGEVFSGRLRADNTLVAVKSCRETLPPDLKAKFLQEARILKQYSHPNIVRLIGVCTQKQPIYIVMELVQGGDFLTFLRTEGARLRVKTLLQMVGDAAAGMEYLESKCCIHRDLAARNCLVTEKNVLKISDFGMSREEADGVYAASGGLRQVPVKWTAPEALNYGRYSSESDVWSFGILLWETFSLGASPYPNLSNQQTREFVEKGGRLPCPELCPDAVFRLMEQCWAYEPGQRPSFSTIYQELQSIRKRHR
ABL1, sequence (P00519 whole entry): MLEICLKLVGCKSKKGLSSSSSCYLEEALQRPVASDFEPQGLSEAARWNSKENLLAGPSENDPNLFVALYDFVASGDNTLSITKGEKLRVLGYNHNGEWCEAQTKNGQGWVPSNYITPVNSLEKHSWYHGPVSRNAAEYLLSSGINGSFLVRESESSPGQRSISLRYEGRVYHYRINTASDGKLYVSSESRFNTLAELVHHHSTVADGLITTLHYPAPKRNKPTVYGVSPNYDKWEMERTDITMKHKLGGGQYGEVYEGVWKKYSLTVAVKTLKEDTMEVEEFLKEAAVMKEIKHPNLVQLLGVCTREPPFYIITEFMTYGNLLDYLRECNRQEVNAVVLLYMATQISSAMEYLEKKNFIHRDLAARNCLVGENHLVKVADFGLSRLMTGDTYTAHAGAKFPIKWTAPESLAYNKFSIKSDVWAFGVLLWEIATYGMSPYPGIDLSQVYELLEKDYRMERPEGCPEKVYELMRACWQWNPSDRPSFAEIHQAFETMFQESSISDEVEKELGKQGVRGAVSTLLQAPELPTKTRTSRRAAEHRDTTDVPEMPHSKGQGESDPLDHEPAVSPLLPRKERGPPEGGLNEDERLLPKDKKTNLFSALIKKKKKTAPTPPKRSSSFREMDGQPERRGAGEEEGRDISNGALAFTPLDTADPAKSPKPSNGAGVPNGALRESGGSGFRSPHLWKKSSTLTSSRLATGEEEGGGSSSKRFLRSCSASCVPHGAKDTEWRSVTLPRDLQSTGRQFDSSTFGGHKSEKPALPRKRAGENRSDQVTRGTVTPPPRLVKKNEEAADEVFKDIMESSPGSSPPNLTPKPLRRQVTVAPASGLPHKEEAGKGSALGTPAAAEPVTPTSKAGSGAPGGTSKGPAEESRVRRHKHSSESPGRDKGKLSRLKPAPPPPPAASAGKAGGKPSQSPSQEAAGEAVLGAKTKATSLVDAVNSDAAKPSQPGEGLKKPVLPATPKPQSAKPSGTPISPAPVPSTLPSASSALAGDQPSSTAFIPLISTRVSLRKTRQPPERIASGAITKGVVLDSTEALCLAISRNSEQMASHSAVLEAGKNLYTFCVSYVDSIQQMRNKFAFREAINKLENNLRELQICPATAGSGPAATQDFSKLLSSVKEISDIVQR
CSK, sequence (P41240 whole entry): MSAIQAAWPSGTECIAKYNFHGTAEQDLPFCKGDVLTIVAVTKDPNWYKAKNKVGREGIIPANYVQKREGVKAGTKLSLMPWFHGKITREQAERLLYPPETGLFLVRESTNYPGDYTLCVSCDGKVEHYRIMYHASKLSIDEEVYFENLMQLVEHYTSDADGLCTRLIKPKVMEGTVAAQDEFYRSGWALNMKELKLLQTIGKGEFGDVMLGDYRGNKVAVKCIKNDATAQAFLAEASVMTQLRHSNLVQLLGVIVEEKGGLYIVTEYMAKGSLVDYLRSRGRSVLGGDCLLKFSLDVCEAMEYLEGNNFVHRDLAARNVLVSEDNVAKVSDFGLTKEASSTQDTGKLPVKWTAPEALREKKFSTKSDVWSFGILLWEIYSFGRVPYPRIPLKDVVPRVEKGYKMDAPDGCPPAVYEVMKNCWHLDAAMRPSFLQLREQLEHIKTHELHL
LYN, sequence (P07948 whole entry): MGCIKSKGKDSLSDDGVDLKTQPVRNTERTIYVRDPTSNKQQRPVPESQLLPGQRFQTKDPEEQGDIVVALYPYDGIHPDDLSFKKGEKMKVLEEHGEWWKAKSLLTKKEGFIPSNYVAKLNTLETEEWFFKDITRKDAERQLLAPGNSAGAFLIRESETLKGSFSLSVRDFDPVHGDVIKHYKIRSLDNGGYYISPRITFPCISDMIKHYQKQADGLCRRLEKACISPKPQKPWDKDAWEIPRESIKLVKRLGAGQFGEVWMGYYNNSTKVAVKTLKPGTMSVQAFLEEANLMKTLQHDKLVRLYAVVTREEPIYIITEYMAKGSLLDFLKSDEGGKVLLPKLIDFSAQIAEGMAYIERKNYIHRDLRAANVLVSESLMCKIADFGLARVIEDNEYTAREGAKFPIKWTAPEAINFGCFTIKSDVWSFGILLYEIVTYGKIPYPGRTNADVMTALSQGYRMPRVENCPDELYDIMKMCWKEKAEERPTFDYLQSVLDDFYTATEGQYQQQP

Substance | Relative phosphorylation (% of highest signal) (FES^WT) | Relative phosphorylation (% of highest signal) (ABL1) | Relative phosphorylation (% of highest signal) (CSK) | Relative phosphorylation (% of highest signal) (FGR) | Relative phosphorylation (% of highest signal) (LYN) | Relative phosphorylation (% of highest signal) (SYK)
EFS_246_258_Y253F (GGTDEGIFDVPLL; UniProt O43281 246-258, looked up, fragment Y253F) | -0.634 % of highest signal | -0.5 % of highest signal | -0.6 % of highest signal | -4.8 % of highest signal | -0.264 % of highest signal | -1.2 % of highest signal
AMPE_5_17 (EREGSKRYCIQTK; UniProt Q07075 5-17, looked up, fragment) | -0.1 % of highest signal | -0.436 % of highest signal | -0.745 % of highest signal | -1.5 % of highest signal | 0.114 % of highest signal | -1.8 % of highest signal
VGFR2_1168_1180 (AQQDGKDYIVLPI; UniProt P35968 1168-1180, looked up, fragment) | 6.1 % of highest signal | 0.014 % of highest signal | 0.544 % of highest signal | -1.8 % of highest signal | 0.147 % of highest signal | 2.7 % of highest signal
STAT6_634_646 (MGKDGRGYVPATI; UniProt P42226 634-646, looked up, fragment) | -0.355 % of highest signal | -0.6 % of highest signal | -1.1 % of highest signal | -4.7 % of highest signal | -0.3 % of highest signal | -2.2 % of highest signal
MBP_263_275 (GRASDYKSAHKGF; UniProt P02686 263-275, looked up, fragment) | -0.25 % of highest signal | -0.13 % of highest signal | -0.5 % of highest signal | -0.9 % of highest signal | -0.172 % of highest signal | -0.355 % of highest signal
VGFR1_1049_1061 (KNPDYVRKGDTRL; UniProt P17948 1049-1061, looked up, fragment) | -0.333 % of highest signal | -0.36 % of highest signal | -0.8 % of highest signal | -2.4 % of highest signal | -0.274 % of highest signal | -0.167 % of highest signal
NPT2A_501_513 (AKALGKRTAKYRW; UniProt Q06495 501-513, looked up, fragment) | 0.553 % of highest signal | -0.2 % of highest signal | -0.4 % of highest signal | -2.1 % of highest signal | -0.318 % of highest signal | -0.846 % of highest signal
PERI_458_470 (QRSELDKSSAHSY; UniProt P41219 458-470, looked up, fragment) | -0.5 % of highest signal | -0.4 % of highest signal | -0.632 % of highest signal | -1.2 % of highest signal | -0.0931 % of highest signal | -1.3 % of highest signal
STA5A_687_699 (LAKAVDGYVKPQI; UniProt P42229 687-699, looked up, fragment) | -0.46 % of highest signal | -0.439 % of highest signal | -1.3 % of highest signal | -3.6 % of highest signal | -0.4 % of highest signal | -1.9 % of highest signal
VGFR1_1235_1247 (ATSMFDDYQGDSS; UniProt P17948 1235-1247, looked up, fragment) | -0.11 % of highest signal | -0.543 % of highest signal | -0.5 % of highest signal | 0.9 % of highest signal | -0.0433 % of highest signal | 17.6 % of highest signal
EPHA2_581_593 (QLKPLKTYVDPHT; UniProt P29317 581-593, looked up, fragment) | -0.0404 % of highest signal | -0.273 % of highest signal | -0.569 % of highest signal | -3.2 % of highest signal | -0.186 % of highest signal | -1.0 % of highest signal
STAT4_686_698 (TERGDKGYVPSVF; UniProt Q14765 686-698, looked up, fragment) | -0.247 % of highest signal | -0.7 % of highest signal | -0.9 % of highest signal | -4.1 % of highest signal | -0.165 % of highest signal | -1.2 % of highest signal
NTRK2_509_521 (PVIENPQYFGITN; UniProt Q16620 509-521, looked up, fragment) | -0.566 % of highest signal | -0.0217 % of highest signal | -0.422 % of highest signal | -1.0 % of highest signal | 0.113 % of highest signal | 0.0821 % of highest signal
ZAP70_485_497 (ALGADDSYYTARS; UniProt P43403 485-497, looked up, fragment) | 3.5 % of highest signal | -0.0741 % of highest signal | 0.277 % of highest signal | 7.8 % of highest signal | 1.0 % of highest signal | 10.4 % of highest signal
VGFR2_1207_1219_C1208S (VSDPKFHYDNTAG; UniProt P35968 1207-1219, looked up, variant C1208S) | 0.5 % of highest signal | -0.742 % of highest signal | -1.4 % of highest signal | -0.6 % of highest signal | -0.213 % of highest signal | -1.4 % of highest signal
DDR1_506_518 (LLLSNPAYRLLLA; UniProt Q08345 506-518, looked up, fragment) | -0.4 % of highest signal | -1.4 % of highest signal | -1.7 % of highest signal | -6.2 % of highest signal | -1.0 % of highest signal | -3.9 % of highest signal
VGFR2_989_1001 (EEAPEDLYKDFLT; UniProt P35968 989-1001, looked up, fragment) | 10.0 % of highest signal | 2.3 % of highest signal | 30.5 % of highest signal | 21.5 % of highest signal | 2.8 % of highest signal | 15.3 % of highest signal
VGFR2_1046_1058 (DFGLARDIYKDPD; UniProt P35968 1046-1058, looked up, fragment) | 1.1 % of highest signal | -0.11 % of highest signal | 2.2 % of highest signal | 1.2 % of highest signal | 0.243 % of highest signal | 0.6 % of highest signal
MBP_259_271 (FGYGGRASDYKSA; UniProt P02686 259-271, looked up, fragment) | -0.152 % of highest signal | -0.0479 % of highest signal | -0.0622 % of highest signal | 0.634 % of highest signal | -0.152 % of highest signal | 0.9 % of highest signal
